Data: patent US20220002362A1

Target: OptoSTIM1 (CRY2 E281A) (Arabidopsis thaliana) (UniProt Q13586)
Test: cell-based or functional assay

OptoSTIM1 (CRY2 E281A) (from UniProt Q13586 238-668)
activation half-maximal time (R-GECO1 level upon light stimulation): 62 s | inactivation half time (R-GECO1 level after light removal): 7 min
